Source: patent US20230213524A1 (published 2023)

Columns and labels:
FOLR2 = biological target: T1, FOLR2 (UniProt P14207 17-230, limits assumed); experiment: commercially available ELISA kit
T1 construct: also called folate receptor 2
Excerpt: (§1) It is important that the assay detect only FOLR1, and not FOLR2 or especially FOLR3 (commonly found as a shed protein in human plasma), since Mov19 is specific for only FOLR1. To determine this, the top four clones were screened by commercially available ELISA kits (FIGS. 7A-B).

FOLR3 = biological target: T2, FOLR3 (UniProt P41439 23-245, limits assumed); experiment: commercially available ELISA kit
T2 construct: also called folate receptor 3
Excerpt: as §1

[1] = biological target: human folate receptor 1 (FOLR1) on cells (human) (UniProt P15328); experiment: laser scanning cytometry on KB cells pre-treated with M9346A or vehicle, then stained with commercial FRA
[2] = biological target: T3, human folate receptor 1 (FOLR1) on cells (human, UniProt P15328 25-234); experiment: flow cytometry on T47D cells and ELISA (binding affinity 'by both methods')
T3 construct: On the cell surface: 300-19 cells transfected with human FOLR1 (NCBI NP_057937), or endogenous on KB, T47D and OVCAR3 cells; also called huFOLR1; folate receptor alpha
Description: To assure that materials were continuously performing as expected, all antibodies were screened for binding by both ELISA and flow cytometry methods known in the art. Flow cytometry was performed using FOLR1 expressing human T47D cells cultured using in-vitro cell culture techniques known in the art. The antibodies were bound to these cells and detected indirectly using a goat anti-murine Alexa-fluor 488 detection antibody on a FACScalibur machine (FIGS. 6A-B).

T3 sequence (P15328 25-234 limits assumed): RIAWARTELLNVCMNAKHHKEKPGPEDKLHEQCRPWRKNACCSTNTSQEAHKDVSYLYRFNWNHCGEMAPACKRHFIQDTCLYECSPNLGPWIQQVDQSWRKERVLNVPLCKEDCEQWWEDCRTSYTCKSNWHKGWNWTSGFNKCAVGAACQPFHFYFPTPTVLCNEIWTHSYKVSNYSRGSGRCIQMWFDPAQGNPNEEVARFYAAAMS
T2 sequence (P41439 23-245 limits assumed): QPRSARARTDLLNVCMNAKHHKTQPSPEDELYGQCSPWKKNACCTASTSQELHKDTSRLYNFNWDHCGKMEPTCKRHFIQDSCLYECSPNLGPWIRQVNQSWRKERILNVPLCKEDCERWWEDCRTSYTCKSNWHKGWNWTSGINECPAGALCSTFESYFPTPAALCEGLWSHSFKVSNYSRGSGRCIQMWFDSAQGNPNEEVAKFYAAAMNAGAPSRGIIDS
Sequence of human folate receptor 1 (FOLR1) on cells (human) (P15328 25-234 limits assumed): as the sequence (P15328 25-234 limits assumed) above
T1 sequence (P14207 17-230 limits assumed): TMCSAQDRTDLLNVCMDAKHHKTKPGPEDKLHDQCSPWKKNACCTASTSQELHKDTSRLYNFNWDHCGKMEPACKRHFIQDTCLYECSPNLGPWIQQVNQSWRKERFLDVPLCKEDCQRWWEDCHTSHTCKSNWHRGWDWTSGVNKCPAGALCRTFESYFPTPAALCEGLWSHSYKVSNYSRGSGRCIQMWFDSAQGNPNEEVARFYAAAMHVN

B1: huMov19 (M9346A) (antibody, V domains shown)
VH: QVQLVQSGAEVVKPGASVKISCKASGYTFTGYFMNWVKQSPGQSLEWIGRIHPYDGDTFYNQKFQGKATLTVDKSSNTAHMELLSLTSEDFAVYYCTRYDGSRAMDYWGQGTTVTVSS
VL: DIVLTQSPLSLAVSLGQPAIISCKASQSVSFAGTSLMHWYHQKPGQQPRLLIYRASNLEAGVPDRFSGSGSKTDFTLTISPVEAEDAATYYCQQSREYPYTFGGGTKLEIKR
notes: also called IMGN853 antibody; antibody component of IMGN853
With B1 the binding result (FOLR2) was “no binding”, the binding result (FOLR3) was “no binding” and the drop in FRA signal [1] was 66%.

B2: muFR1-9 (antibody, mouse IgG1, kappa, V domains shown)
VH: QVQLVESGGGLVQPGGSRKLSCAASGFTFSSFGMHWVRQAPEKGLEWVAYISSGSSTFYYADTVKGRFTISRDNPKNTLFLQMTSLRSEDTAMYYCAKELTGTFAYWGQGTLVTVSA
VL: DIVLTQSPATLSVTPGDSVSLSCRASQSINNNLHWYQQKSHESPRLLIKYASQSISGIPSRFSGSGSGTDFTLSINSVETEDFGMYFCQQSNSWPQVTFGAGTKLELKR
notes: Murine monoclonal purified from hybridoma supernatant; Capture antibody of the shed antigen ELISA; also called murine FR1-9
B2 was tested, and the Kd [2] was 2 to 4 nM.

B3: muFR1-13 (antibody, mouse IgG2b, kappa, V domains shown)
VH: QVQLKESGPDLVAPSQSLSITCTVSGFSLSRYSVHWIRQPPGKGLEWLGMIWSGGNTDYNSVFKSRLNITKDNSKSQVFLKMNSLQTDDTAIYYCATFDGKVSWFAYWGQGTLVTVSA
VL: SIVMTQTPKFLLVSTGDRFTITCKASQSVSNDVLWYQQKPGQSPKLLIYYAYNRYSGVPDRFTGSGYGTDFTFTITTVQSEDLAVYFCQQDHSSPFTFGSGTKLEIKR
notes: Murine monoclonal purified from hybridoma supernatant; Used biotinylated as the detection antibody in the ELISAs and unlabeled in the cytometry assays; also called muFR1-13b; Biotinylated FR1-13
Binder B3 has a Kd [2] of 1 to 3 nM.
